We go through five molecules from publication PMC13495755 (Journal of the American Chemical Society, 2026).

The target in one test is BCL-xL (UniProt Q07817). The test can be described thus: fluorescence polarisation; direct FA titration of the labeled BID peptide with BCL-xL or MCL-1. On the technique in general: Fluorescence polarisation rises when a labelled molecule tumbles more slowly, as on binding a larger partner.
In the next test the target is MCL-1 (UniProt Q07820). Described as above.
Test [1] concerns the target T1, Kelch-like protein 20 (KLHL20) (UniProt Q9Y2M5 1-609).
T1 construct: Kelch-like protein 20 (KLHL20), E3 ubiquitin ligase adapter; The functional rows use this molecule for KLHL20 of HEK293 cells; also called E3 ligase adapter
T1 sequence (looked up): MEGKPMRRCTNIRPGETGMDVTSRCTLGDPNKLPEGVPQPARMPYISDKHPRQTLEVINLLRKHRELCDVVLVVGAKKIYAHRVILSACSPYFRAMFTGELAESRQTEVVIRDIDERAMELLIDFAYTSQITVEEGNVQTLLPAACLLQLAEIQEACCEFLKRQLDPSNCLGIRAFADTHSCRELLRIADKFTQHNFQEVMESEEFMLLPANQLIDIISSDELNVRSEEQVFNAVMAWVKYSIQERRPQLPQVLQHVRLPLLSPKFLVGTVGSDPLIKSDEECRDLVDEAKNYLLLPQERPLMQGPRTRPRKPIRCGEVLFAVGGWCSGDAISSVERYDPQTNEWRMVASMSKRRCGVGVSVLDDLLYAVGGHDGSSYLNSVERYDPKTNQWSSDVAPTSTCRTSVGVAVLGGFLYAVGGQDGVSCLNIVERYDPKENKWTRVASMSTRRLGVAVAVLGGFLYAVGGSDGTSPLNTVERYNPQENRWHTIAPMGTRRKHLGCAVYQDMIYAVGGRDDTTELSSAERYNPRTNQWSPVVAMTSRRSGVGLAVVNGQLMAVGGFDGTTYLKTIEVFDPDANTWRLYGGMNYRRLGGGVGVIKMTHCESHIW
The test can be described thus: fluorescence polarisation; direct FA titration of the tracer with KLHL20. The conditions noted are these: both partners purified.

The target in a further test is T2, KLHL20 (303-605).
T2 sequence (Q9Y2M5 303-605, species assumed, looked up): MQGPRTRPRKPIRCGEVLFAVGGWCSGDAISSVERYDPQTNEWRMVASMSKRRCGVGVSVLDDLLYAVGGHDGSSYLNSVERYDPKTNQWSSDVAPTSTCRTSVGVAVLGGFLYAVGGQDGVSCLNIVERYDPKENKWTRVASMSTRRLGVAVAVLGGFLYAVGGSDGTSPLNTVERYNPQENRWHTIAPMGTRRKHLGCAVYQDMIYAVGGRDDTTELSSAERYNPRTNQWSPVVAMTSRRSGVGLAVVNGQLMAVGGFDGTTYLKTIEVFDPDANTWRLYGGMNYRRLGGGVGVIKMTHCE
The test can be described thus: fluorescence polarisation; direct titration of the FAM-labelled tracer peptide with the target protein; FA buffer 20 mM Tris, 150 mM NaCl pH 7.4, 1 mM DTT, 0.01% triton x100.

The target of the next test is T3, MCL-1 (172-327).
T3 construct: MCL-1 residues 172-327 as labelled; source: E. coli BL21 DE3, purified (His-trap, SUMO tag removed with His-Ulp1, reverse His-trap, Superdex 75); not shown: His6, N-terminal, cleaved; SUMO, N-terminal, cleaved
T3 chain: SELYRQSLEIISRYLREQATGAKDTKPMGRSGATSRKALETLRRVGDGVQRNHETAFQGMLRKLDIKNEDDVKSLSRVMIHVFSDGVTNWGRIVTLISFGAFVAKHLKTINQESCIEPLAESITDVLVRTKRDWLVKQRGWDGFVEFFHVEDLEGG
The test can be described thus: fluorescence polarisation; competitive fluorescence anisotropy; target protein (BCL-xL or MCL-1) fixed at 150 nM, FAM-BID tracer fixed at 25 nM, competitor protein titrated in; FA buffer 20 mM Tris, 150 mM NaCl pH 7.4, 1 mM DTT, 0.01% triton x100 (legends: 20 mM Tris-HCl, 150 mM NaCl, pH 7.5); triplicate; logistic fit. Conditions: both partners purified.

For a further test, the target named is T4, BCL-xL (1-26 + 81-198).
T4 construct: BCL-xL, first stretch of the loop-deleted construct; BCL-xL, second stretch; Loop between the two stretches deleted; no linker; source: E. coli BL21 DE3, purified (His-trap, SUMO tag removed with His-Ulp1, reverse His-trap, Superdex 75); not shown: His6, N-terminal, cleaved; SUMO, N-terminal, cleaved
T4 chain: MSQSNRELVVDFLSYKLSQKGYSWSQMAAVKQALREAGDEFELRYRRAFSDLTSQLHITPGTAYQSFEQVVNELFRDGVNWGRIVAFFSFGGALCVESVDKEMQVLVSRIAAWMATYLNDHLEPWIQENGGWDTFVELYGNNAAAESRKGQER
The test is described as above. Conditions: both partners purified.

The star is where a group is joined. 5FAM = O=C1OC2(c3ccc(O)cc3Oc3cc(O)ccc32)c2ccc(C(=O)*)cc21; Ahx = NCCCCCC(=O)O

MCL-1, sequence (Q07820 whole entry): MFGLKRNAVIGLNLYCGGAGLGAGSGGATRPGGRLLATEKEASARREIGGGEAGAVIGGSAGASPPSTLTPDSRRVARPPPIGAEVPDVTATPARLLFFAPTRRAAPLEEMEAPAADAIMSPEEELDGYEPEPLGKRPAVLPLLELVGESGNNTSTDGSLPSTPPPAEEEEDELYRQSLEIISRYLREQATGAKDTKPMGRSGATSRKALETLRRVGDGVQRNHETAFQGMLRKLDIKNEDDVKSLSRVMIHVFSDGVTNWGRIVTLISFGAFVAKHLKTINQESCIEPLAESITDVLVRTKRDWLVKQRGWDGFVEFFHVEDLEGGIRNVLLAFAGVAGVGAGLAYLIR

Take “BID, natural effector peptide, labeled competitor peptide”: the Kd was 71 nM with BCL-xL and 21.5 nM with MCL-1.

B1: tracer of the competitive FA-binding assay for KLHL20 (peptide)
chain: {FAM-Ahx}-LGLPDLVAK-NH2
For the molecule B1, the affinity in test [1], expressed as Kd, was 12000 nM.

B2: FAM-DAPK1 (peptide)
peptide: {5FAM-Ahx}-LGLPDLVAK-NH2
SMILES: CC(C)C[C@H](NC(=O)CCCCCNC(=O)c1ccc2c(c1)C(=O)OC21c2ccc(O)cc2Oc2cc(O)ccc21)C(=O)NCC(=O)N[C@@H](CC(C)C)C(=O)N1CCC[C@H]1C(=O)N[C@@H](CC(=O)O)C(=O)N[C@@H](CC(C)C)C(=O)N[C@H](C(=O)N[C@@H](C)C(=O)N[C@@H](CCCCN)C(N)=O)C(C)C
With B2, the Kd in the test with KLHL20 (303-605) stood at 12200 nM.

B3: Sc-apCC-2-BCL-xL-12 (designed binder)
chain: SHMGPELERLEERRRELERELEELDREIAELEWTIKSDPRKKELIVKLRQLFGRRLRLMGDIFDLDVQIRRLREG
For B3, the IC50 with MCL-1 (172-327) was 270 ± 20 nM; with BCL-xL (1-26 + 81-198), 212 ± 18 nM.

B4: Sc-apCC-2-BCL-xL-11 (designed binder)
chain: SHMGPELAALQAERDALEARLAELDREIAALEWRIPSDPRKKQLIGELLRLFGDRFDLERRIAELDAKIEALKNG
notes: de novo helix-loop-helix design against BCL-xL (Strategy 3, pAE); source: E. coli BL21 DE3, purified (His-trap, TEV cleavage, reverse His-trap, Superdex 75); not shown: His6, N-terminal, cleaved
Take B4: the results for the IC50 in the test with MCL-1 (172-327) and in the test with BCL-xL (1-26 + 81-198) were 500 ± 150 nM and 197 ± 10 nM, respectively.

By Kd is commonly meant the free concentration of one partner at which half of the binding sites on the other are occupied at equilibrium, for simple one-to-one binding. A higher Kd goes with weaker binding. Broadly, the IC50 is the concentration at which inhibition is half-maximal.
